Biological target: T1, Spc98p (Saccharomyces cerevisiae, UniProt P53540 1-846)
T1 sequence: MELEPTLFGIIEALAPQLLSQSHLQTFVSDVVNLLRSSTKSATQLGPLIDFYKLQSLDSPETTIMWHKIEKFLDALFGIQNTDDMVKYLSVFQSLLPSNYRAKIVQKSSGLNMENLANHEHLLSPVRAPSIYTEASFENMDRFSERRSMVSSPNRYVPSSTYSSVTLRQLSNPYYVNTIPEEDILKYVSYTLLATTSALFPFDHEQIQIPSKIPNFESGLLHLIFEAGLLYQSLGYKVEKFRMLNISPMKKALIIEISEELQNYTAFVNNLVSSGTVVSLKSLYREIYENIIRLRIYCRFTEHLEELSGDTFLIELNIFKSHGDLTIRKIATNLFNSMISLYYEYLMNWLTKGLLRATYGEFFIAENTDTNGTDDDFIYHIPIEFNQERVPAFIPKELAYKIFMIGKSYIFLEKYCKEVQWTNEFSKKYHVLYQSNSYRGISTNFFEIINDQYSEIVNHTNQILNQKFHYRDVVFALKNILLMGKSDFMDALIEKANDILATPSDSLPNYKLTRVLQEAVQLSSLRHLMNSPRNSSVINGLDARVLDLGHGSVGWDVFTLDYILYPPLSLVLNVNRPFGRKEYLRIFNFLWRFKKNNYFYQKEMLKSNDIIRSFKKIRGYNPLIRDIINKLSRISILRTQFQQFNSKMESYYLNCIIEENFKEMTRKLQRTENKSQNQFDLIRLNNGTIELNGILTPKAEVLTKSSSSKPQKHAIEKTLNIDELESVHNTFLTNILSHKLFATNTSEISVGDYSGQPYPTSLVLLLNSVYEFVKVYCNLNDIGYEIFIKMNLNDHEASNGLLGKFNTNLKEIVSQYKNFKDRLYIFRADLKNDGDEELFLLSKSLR
Experiment: cryo-EM structure

binding result: binds
B1: Spc97p (natural protein)
chain: MEIKEVDDRAELLRYTNNIPLLGKLVNHQPLWSTNPKLKSFSLEKISAPDQRRVQEALVVKDLLNVLIGLEGTYIRYFNDYEPSDPETPIEFKIAKKMDPSFKTFSRRIVRYGKQYMILTRAYEKWSDTSFGMVLQRFAYEIRRFLEDVYLKTLVERLERDFNKVPNFSIRELEQIINETEVNKQMELLYNIYEEIFREIEERRTNQSSQEDFNNFMDSMKNESSLHLRLMVAFDTTVYPVPKGGAILKIFQQKILENLGDRSSVMFLKKLLNNISQDYCTMLYEWLTQGILNDPYQEFMTYDDLEGKTDNIFDTRDRAWDTQYFIRKDVLLRDCDSEEDKNLLFKMLRTGILLKVVRASLQIPTIPSNSSDITIQEINDFADLMEGSNLELYVDKCYSRANEIFLKLFFQGYDLINVLKHLQQIFLGYQSGHNVLKFLTKNMGELTKHYRNDNNANYDKLLQNFELERQSENPNNLMRQLLMIQFDTETLPQVLSHYLQIYPEVPENNSANDDSDPLMHANNFKNMNAILFDELSKERTGAYHGSNLELYTPKSAIYHLKFDINIPYPLNIIISRTCMIKYQIILRYQLVLQYHSRLLDETWMDLNKTPSWKYRGYSHTVKRRIVRATRVLHAKMNHFIKTIMEYFNQNVIDKEVYSLEKCYRNPTLAVAIQNELEGGLTNIMTNRCLSDLIPLQLQIFDIVYKFCKFIKSMRAKLCQLDPVLYEKHKSGMMKTLNEGYRTNNGGQEDVGYQEDAALELIQKLIEYISNASSIFRKCLINFTQELSTEKFDFYDSSSVDAAGIERVLYSIVPPRSASASSQR
